No end group written: not given here. PEG2000 = poly(ethylene) glycol, 2000; VitE = vitamin E (alpha tocopherol)
Assays:
reconstituted HDL (rHDL) = target: T1, reconstituted HDL (rHDL) (Homo sapiens, UniProt P02647); test: Binding of A1AT to reconstituted HDL, size exclusion chromatography; details: gel filtration profile, HDL containing apoA-I and phospholipids
T1 construct: Reconstituted HDL was prepared by cholate dialysis method, using human purified apolipoprotein A-I; from tissue
Procedure: FIG. 7A-7B. Alpha-1-antitrypsin has reduced anti-elastase activity when bound to reconstituted HDL. Reconstituted HDL (rHDL) were prepared from apoA-I and phospholipids by cholate dialysis and then co-incubated with alpha-1-antitrypsin (A1AT) to generate A1AT enriched rHDL. (FIG. 7A) Size exclusion chromatography on tandem Superdex 200 columns was used to isolate HDL bound A1AT from lipid free protein. (FIG. 7B) The ability of lipid free and rHDL bound A1AT to inhibit neutrophil elastase (NE) activity was measured by fluorometric assay.
Reconstituted HDL was prepared by cholate dialysis method, using human purified apolipoprotein A-I and 1-palmitoyl-2-oleoyl-sn-glycero-3-phosphocholine (Avanti) as previously described (Matz & Jonas, J Biol Chem 257: 4535-4540, 1982). Native human HDL was isolated from plasma by sequential density gradient ultracentrifugation (Chapman et al., J Lipid Res 22: 339-358, 1981). Reconstituted or native HDL was co-incubated with alpha-1-antitrypsin protein (Human, Sigma Aldrich) overnight at 37° C. Unbound A1AT was removed by filtration, using Amicon Ultra 100 kDa centrifugal filter units (Millipore). Elastase activity assays were performed with the EnzChek® elastase assay kit (Life Technologies). […]

J774 mouse macrophages = test: Elastase induced TNF-α production by J774 macrophages; type: cell-based
Procedure: (§1) FIG. 9A-9E. Alpha-1-antitrypsin enriched HDL prevents elastase induced TNF-α production by macrophages. (FIG. 9A) J774 mouse macrophages treated with increasing amounts of porcine pancreatic elastase (PPE) or heat inactivated elastase for 4 hours, TNF-α in the culture media was measured by ELISA. (FIG. 9B) J774 cells pretreated with PBS, isolated human HDL (nHDL), the same HDL enriched with alpha-1-antitrypsin (A1AT nHDL), or lipid free A1AT for 1 hour prior to PPE addition. (FIG. 9C) The ability of each of the cell treatments to inhibit elastase activity was measured in a cell-free assay. (FIG. 9D) Treatments were pre-incubated with PPE prior to addition to cells and TNF-α was measured in the culture media after 4 hours. (FIG. 9E) J774 cells were pre-incubated with each treatment for 1 hour; cells were then washed twice with PBS and placed in fresh media containing PPE and TNF-α was measured in the culture media after 4 hours. All experiments were repeated at least 3 times and were done in triplicates. Treatments were compared using one-way ANOVA and Tukey's multiple comparisons test, p<0.05 was considered significant. The letters above each treatment indicate statistical significance; within each graph, bars bearing different letters were statistically different from each other.
J774 mouse macrophages were used to examine the potential functional role of alpha-1-antitrypsin enriched HDL in inflammation. For these experiments, cells were plated in 12-well culture plates at a density of 1×10^5 cells/well two days prior to the experiment. Cells were washed twice with PBS and placed in serum-free media for 1 hour prior to addition of treatment. Treatments (PBS, nHDL, A1AT-HDL or A1AT) were added to serum-free culture media: HDL protein was matched for nHDL and A1AT-nHDL at a final concentration of 200 μg/mL. A1AT concentration was matched between free A1AT and A1AT-nHDL at a final concentration of 2 μM. Cells were then incubated with elastase (porcine pancreas, Sigma Aldrich, 500 nM) for 4 hours and media was collected and centrifuged at 3,000×g for 5 min to pellet any loose cells or debris and supernatant was transferred to fresh tubes and stored at −80° C. until further analysis. Elisa assays for mouse TNF-α (BioLegend) were performed on cell culture media.
Next, J774 cells were pre-incubated with PBS, native HDL (nHDL), A1AT enriched nHDL, or lipid-free A1AT for 1 hour prior to the addition of elastase to the culture media to allow for […] of A1AT.

[1] = target: T2, porcine pancreatic elastase (PPE) (Sus scrofa, UniProt P00772); test: Elastase inhibition of the cell treatments in a cell-free assay; type: biochemical; details: same treatments as for J774 cells
T2 construct: incubated with elastase (porcine pancreas, Sigma Aldrich, 500 nM) for 4 hours; purchased Sigma Aldrich; host or cells: porcine pancreas
T2 sequence (P00772 27-266): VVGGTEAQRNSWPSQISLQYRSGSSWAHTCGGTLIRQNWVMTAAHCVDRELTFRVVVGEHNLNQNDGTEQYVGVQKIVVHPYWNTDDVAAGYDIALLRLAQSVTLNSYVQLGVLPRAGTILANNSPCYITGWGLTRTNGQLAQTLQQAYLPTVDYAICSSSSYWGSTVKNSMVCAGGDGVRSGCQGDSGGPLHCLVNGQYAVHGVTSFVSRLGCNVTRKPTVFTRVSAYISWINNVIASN
Procedure: as §1, with “other. […]” for “other.”

elastase = target: T3, elastase (Sus scrofa, UniProt P00772); test: EnzChek elastase inhibitor assay (Example 3); type: biochemical; details: EnzChek Elastase Assay Kit
T3 construct: purchased Molecular Probes E-12056
T3 sequence (P00772 27-266): as above
Source text: Elastase Inhibitor Assay.

HDL = test: E-AAPV coincubated with purified human HDL, HDL repurified and tested for elastase inhibitor activity; type: binding; details: coincubated 30 minutes at 37° C., HDL repurified by size-exclusion chromatography
Procedure: Isolated Human HDL was co-incubated with the E-AAPV (SEQ ID NO: 5) peptide for 30 minutes at 37° C. and then HDL was reisolated by FPLC to remove unbound E-AAPV (SEQ ID NO: 5). The HDL was then tested for elastase inhibition activity and compared to control HDL which was coincubated with PBS (no peptide) and repurified. Sampes were matched based on phospholipid content.
E-AAPV peptide binds HDL and confers elastase inhibitor activity. The reaction product (E-AAPV; SEQ ID NO: 5) was coincubated with purified human HDL for 30 minutes at 37° C. followed by repurification of HDL by size-exclusion chromatography to remove unbound E-AAPV (SEQ ID NO: 5) peptide. The repurified HDL was then tested for elastase inhibitor activity using the assay described above.
E-AAPV (SEQ ID NO: 5)-loaded HDL was compared to the same HDL that was coincubated with buffer only (No peptide). The HDL and HDL+E-AAPV (SEQ ID NO: 5) were normalized based on phospholipid content, determined by colorimetric assay, prior to measurement of elastase activity.

T1 sequence (P02647 25-267): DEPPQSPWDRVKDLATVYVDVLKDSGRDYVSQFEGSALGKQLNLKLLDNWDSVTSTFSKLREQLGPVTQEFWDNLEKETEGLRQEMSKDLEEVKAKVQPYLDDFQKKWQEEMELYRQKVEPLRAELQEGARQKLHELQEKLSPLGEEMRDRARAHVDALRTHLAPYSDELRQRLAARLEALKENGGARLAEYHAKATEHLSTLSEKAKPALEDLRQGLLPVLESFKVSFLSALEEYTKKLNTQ

Row | protection against elastase induced TNF-α production (J774 mouse macrophages; pretreated 1 hour prior to elastase, A1AT 2 μM) | protection against elastase induced TNF-α production after removal of treatment (J774 mouse macrophages; pretreated 1 hour, cells washed, fresh media containing elastase) | inhibition of elastase activity in a cell-free system [1] | elastase inhibitor activity (elastase; listed as VitE-PEG-AAPV) | binding to HDL (HDL) | Substance | association of A1AT with discoidal reconstituted HDL (reconstituted HDL (rHDL)) | proteolytic degradation of A1AT in cell culture media, western blot (J774 mouse macrophages; J774 cell culture media) | inhibition of elastase induced TNF-α production, treatment pre-incubated with elastase (J774 mouse macrophages; pre-incubated with elastase prior to addition to the cells) | elastase inhibitor activity (elastase)
1 | no significant protection | no effect | significant anti-elastase activity | – | – | A1AT: alpha-1-antitrypsin protein (Human, Sigma Aldrich), serine protease inhibitor | a significant fraction of A1AT associates with HDL | no evidence of proteolytic degradation | readily able to inhibit elastase induced TNF-α production | –
2 | – | – | – | retains elastase inhibitor activity | binds HDL | VitE-PEG-Ala-Ala-Pro-Val ({VitE-PEG2000}-AAPV) [E-AAPV, vitamin E linked to the A1AT linear peptide AAPV via a PEG2000 linker] | – | – | – | does not affect elastase inhibition activity

From patent US11872261B2, “Lipoprotein targeting protease inhibitors and uses” (The United States of America, as represented by the …, priority 2016, dated 2024)
